In IntAct's records for PubMed 16301520:

B1: Mitochondrial antiviral-signaling protein (Homo sapiens), Q7Z434 (parent)
chain: MPFAEDKTYKYICRNFSNFCNVDVVEILPYLPCLTARDQDRLRATCTLSGNRDTLWHLFNTLQRRPGWVEYFIAALRGCELVDLADEVASVYQSYQPRTSDRPPDPLEPPSLPAERPGPPTPAAAHSIPYNSCREKEPSYPMPVQETQAPESPGENSEQALQTLSPRAIPRNPDGGPLESSSDLAALSPLTSSGHQEQDTELGSTHTAGATSSLTPSRGPVSPSVSFQPLARSTPRASRLPGPTGSVVSTGTSFSSSSPGLASAGAAEGKQGAESDQAEPIICSSGAEAPANSLPSKVPTTLMPVNTVALKVPANPASVSTVPSKLPTSSKPPGAVPSNALTNPAPSKLPINSTRAGMVPSKVPTSMVLTKVSASTVPTDGSSRNEETPAAPTPAGATGGSSAWLDSSSENRGLGSELSKPGVLASQVDSPFSGCFEDLAISASTSLGMGPCHGPEENEYKSEGTFGIHVAENPSIQLLEGNPGPPADPDGGPRPQADRKFQEREVPCHRPSPGALWLQVAVTGVLVVTLLVVLYRRRLH

Variants of: B1
Conditions: with polg_hcv77 polg

Variant	effect of a mutation on the interaction
C508R	decreasing interaction
